Assay: N—H insertion, aniline with ethyl diazo acetate (EDA)
Assay type: biochemical
Conditions: for TTn / % Yield: protein 10 uM, EDA 8.5 mM, aniline 20 mM, Na2S2O4 10 mM, 12 h; for % Yield: product 4.3
Procedure, shortened: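 Final reactions contained 10 or 20 μM P450BM3 variant, 20 mM aniline, 8.5 mM EDA and 10 mM Na2S2O4 in 0.1 M phosphate pH 8.0 under argon, with MeOH cosolvent. After 12 h at 25° C, products were extracted into cyclohexane and quantified by GC-FID against phenethyl alcohol internal standard and calibration curves from authentic standards, giving yield and TTN.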

Row | Molecule | ratio of single to double insertion products (1 mol % hemin) | total product yield (1 mol % hemin) [%] | TTn | % Yield [%] | % Yield (listed as BM3-WT) [%] | % Yield (listed as WT-BM3)
1 | hemin | 3.5 to 1 | 51 | – | – | – | –
2 | ABC-CIS: BM3-CIS + C400S (protein, listed as Bacillus megaterium, cytochrome P450NADPH-P-450 reductase precursor, cytochrome P450 (BM3), CYP102A1, BM3-CIS + C400S) TIKEMPQPKTFGELKNLPLLNTDKPVQALMKIADELGEIFKFEAPGRVTRYLSSQRLIKEACDESRFDKNLSQALKFARDFAGDGLVTSWTHEKNWKKAHNILLPSFSQQAMKGYHAMMVDIAVQLVQKWERLNADEHIEVSEDMTRLTLDTIGLCGFNYRFNSFYRDQPHPFIISMVRALDEVMNKLQRANPDDPAYDENKRQFQEDIKVMNDLVDKIIADRKARGEQSDDLLTQMLNGKDPETGEPLDDGNIRYQIITFLIAGHEATSGLLSFALYFLVKNPHVLQKVAEEAARVLVDPVPSYKQVKQLKYVGMVLNEALRLWPTAPAFSLYAKEDTVLGGEYPLEKGDEVMVLIPQLHRDKTVWGDDVEEFRPERFENPSAIPQHAFKPFGNGQRASIGQQFALHEATLVLGMMLKHFDFEDHTNYELDIKETLTLKPKGFVVKAKSKKIPLGGIPSPSTEQSAKKVRKKAENAHNTPLLVLYGSNMGTAEGTARDLADIAMSKGFAPQVATLDSHAGNLPREGAVLIVTASYNGHPPDNAKQFVDWLDQASADEVKGVRYSVFGCGDKNWATTYQKVPAFIDETLAAKGAENIADRGEADASDDFEGTYEEWREHMWSDVAAYFNLDIENSEDNKSTLSLQFVDSAADMPLAKMHGAFSTNVVASKELQQPGSARSTRHLEIELPKEASYQEGDHLGVIPRNYEGIVNRVTARFGLDASQQIRLEAEEEKLAHLPLAKTVSVEELLQYVELQDPVTRTQLRAMAAKTVCPPHKVELEALLEKQAYKEQVLAKRLTMLELLEKYPACEMKFSEFIALLPSIRPRYYSISSSPRVDEKQASITVSVVSGEAWSGYGEYKGIASNYLAELQEGDTITCFISTPQSEFTLPKDPETPLIMVGPGTGVAPFRGFVQARKQLKEQGQSLGEAHLYFGCRSPHEDYLYQEELENAQSEGIITLHTAFSRMPNQPKTYVQHVMEQDGKKLIELLDQGAHFYICGDGSQMAPAVEATLMKSYADVHQVSEADARLWLQQLEEKGRYAKDVWAG | – | – | 136 | 14 | – | –
3 | P450BM3: wild-type cytochrome P450BM3 from Bacillus megaterium (SEQ ID NO: 1) (protein, listed as Bacillus megaterium, cytochrome P450NADPH-P-450 reductase precursor, cytochrome P450 (BM3), CYP102A1) TIKEMPQPKTFGELKNLPLLNTDKPVQALMKIADELGEIFKFEAPGRVTRYLSSQRLIKEACDESRFDKNLSQALKFVRDFAGDGLFTSWTHEKNWKKAHNILLPSFSQQAMKGYHAMMVDIAVQLVQKWERLNADEHIEVPEDMTRLTLDTIGLCGFNYRFNSFYRDQPHPFITSMVRALDEAMNKLQRANPDDPAYDENKRQFQEDIKVMNDLVDKIIADRKASGEQSDDLLTHMLNGKDPETGEPLDDENIRYQIITFLIAGHETTSGLLSFALYFLVKNPHVLQKAAEEAARVLVDPVPSYKQVKQLKYVGMVLNEALRLWPTAPAFSLYAKEDTVLGGEYPLEKGDELMVLIPQLHRDKTIWGDDVEEFRPERFENPSAIPQHAFKPFGNGQRACIGQQFALHEATLVLGMMLKHFDFEDHTNYELDIKETLTLKPEGFVVKAKSKKIPLGGIPSPSTEQSAKKVRKKAENAHNTPLLVLYGSNMGTAEGTARDLADIAMSKGFAPQVATLDSHAGNLPREGAVLIVTASYNGHPPDNAKQFVDWLDQASADEVKGVRYSVFGCGDKNWATTYQKVPAFIDETLAAKGAENIADRGEADASDDFEGTYEEWREHMWSDVAAYFNLDIENSEDNKSTLSLQFVDSAADMPLAKMHGAFSTNVVASKELQQPGSARSTRHLEIELPKEASYQEGDHLGVIPRNYEGIVNRVTARFGLDASQQIRLEAEEEKLAHLPLAKTVSVEELLQYVELQDPVTRTQLRAMAAKTVCPPHKVELEALLEKQAYKEQVLAKRLTMLELLEKYPACEMKFSEFIALLPSIRPRYYSISSSPRVDEKQASITVSVVSGEAWSGYGEYKGIASNYLAELQEGDTITCFISTPQSEFTLPKDPETPLIMVGPGTGVAPFRGFVQARKQLKEQGQSLGEAHLYFGCRSPHEDYLYQEELENAQSEGIITLHTAFSRMPNQPKTYVQHVMEQDGKKLIELLDQGAHFYICGDGSQMAPAVEATLMKSYADVHQVSEADARLWLQQLEEKGRYAKDVWAG | – | – | 17 | – | 1.7 | trace amounts
4 | BM3-T268A: P450BM3 variant: T268A (protein, listed as Bacillus megaterium, cytochrome P450NADPH-P-450 reductase precursor, cytochrome P450 (BM3), CYP102A1) TIKEMPQPKTFGELKNLPLLNTDKPVQALMKIADELGEIFKFEAPGRVTRYLSSQRLIKEACDESRFDKNLSQALKFVRDFAGDGLFTSWTHEKNWKKAHNILLPSFSQQAMKGYHAMMVDIAVQLVQKWERLNADEHIEVPEDMTRLTLDTIGLCGFNYRFNSFYRDQPHPFITSMVRALDEAMNKLQRANPDDPAYDENKRQFQEDIKVMNDLVDKIIADRKASGEQSDDLLTHMLNGKDPETGEPLDDENIRYQIITFLIAGHEATSGLLSFALYFLVKNPHVLQKAAEEAARVLVDPVPSYKQVKQLKYVGMVLNEALRLWPTAPAFSLYAKEDTVLGGEYPLEKGDELMVLIPQLHRDKTIWGDDVEEFRPERFENPSAIPQHAFKPFGNGQRACIGQQFALHEATLVLGMMLKHFDFEDHTNYELDIKETLTLKPEGFVVKAKSKKIPLGGIPSPSTEQSAKKVRKKAENAHNTPLLVLYGSNMGTAEGTARDLADIAMSKGFAPQVATLDSHAGNLPREGAVLIVTASYNGHPPDNAKQFVDWLDQASADEVKGVRYSVFGCGDKNWATTYQKVPAFIDETLAAKGAENIADRGEADASDDFEGTYEEWREHMWSDVAAYFNLDIENSEDNKSTLSLQFVDSAADMPLAKMHGAFSTNVVASKELQQPGSARSTRHLEIELPKEASYQEGDHLGVIPRNYEGIVNRVTARFGLDASQQIRLEAEEEKLAHLPLAKTVSVEELLQYVELQDPVTRTQLRAMAAKTVCPPHKVELEALLEKQAYKEQVLAKRLTMLELLEKYPACEMKFSEFIALLPSIRPRYYSISSSPRVDEKQASITVSVVSGEAWSGYGEYKGIASNYLAELQEGDTITCFISTPQSEFTLPKDPETPLIMVGPGTGVAPFRGFVQARKQLKEQGQSLGEAHLYFGCRSPHEDYLYQEELENAQSEGIITLHTAFSRMPNQPKTYVQHVMEQDGKKLIELLDQGAHFYICGDGSQMAPAVEATLMKSYADVHQVSEADARLWLQQLEEKGRYAKDVWAG | – | – | 160 | 16 | – | –
5 | ABC-T268A: P450BM3 variant: T268A, C400S (protein, listed as Bacillus megaterium, cytochrome P450NADPH-P-450 reductase precursor, cytochrome P450 (BM3), CYP102A1, P450BM3 variant: T268A, C400S) TIKEMPQPKTFGELKNLPLLNTDKPVQALMKIADELGEIFKFEAPGRVTRYLSSQRLIKEACDESRFDKNLSQALKFVRDFAGDGLFTSWTHEKNWKKAHNILLPSFSQQAMKGYHAMMVDIAVQLVQKWERLNADEHIEVPEDMTRLTLDTIGLCGFNYRFNSFYRDQPHPFITSMVRALDEAMNKLQRANPDDPAYDENKRQFQEDIKVMNDLVDKIIADRKASGEQSDDLLTHMLNGKDPETGEPLDDENIRYQIITFLIAGHEATSGLLSFALYFLVKNPHVLQKAAEEAARVLVDPVPSYKQVKQLKYVGMVLNEALRLWPTAPAFSLYAKEDTVLGGEYPLEKGDELMVLIPQLHRDKTIWGDDVEEFRPERFENPSAIPQHAFKPFGNGQRASIGQQFALHEATLVLGMMLKHFDFEDHTNYELDIKETLTLKPEGFVVKAKSKKIPLGGIPSPSTEQSAKKVRKKAENAHNTPLLVLYGSNMGTAEGTARDLADIAMSKGFAPQVATLDSHAGNLPREGAVLIVTASYNGHPPDNAKQFVDWLDQASADEVKGVRYSVFGCGDKNWATTYQKVPAFIDETLAAKGAENIADRGEADASDDFEGTYEEWREHMWSDVAAYFNLDIENSEDNKSTLSLQFVDSAADMPLAKMHGAFSTNVVASKELQQPGSARSTRHLEIELPKEASYQEGDHLGVIPRNYEGIVNRVTARFGLDASQQIRLEAEEEKLAHLPLAKTVSVEELLQYVELQDPVTRTQLRAMAAKTVCPPHKVELEALLEKQAYKEQVLAKRLTMLELLEKYPACEMKFSEFIALLPSIRPRYYSISSSPRVDEKQASITVSVVSGEAWSGYGEYKGIASNYLAELQEGDTITCFISTPQSEFTLPKDPETPLIMVGPGTGVAPFRGFVQARKQLKEQGQSLGEAHLYFGCRSPHEDYLYQEELENAQSEGIITLHTAFSRMPNQPKTYVQHVMEQDGKKLIELLDQGAHFYICGDGSQMAPAVEATLMKSYADVHQVSEADARLWLQQLEEKGRYAKDVWAG | – | – | 95 | 9.5 | – | –
